± gives the standard deviation of the averaged measurements.
Test system: ATP
Experiment: switch fluorescence ratio, 500 uM ATP over buffer (Cy3 cluster intensity, sum of 5 cycles each) (fold (ratio)); higher = stronger signal-on switching upon ATP binding; sequences stand for … in TCGTCGGCAGCGTCAGATGTGTATAAGAGACAGTTTTTTTTTTTTTTTTTTTTTTTTT…TC
Conditions: aptamer strand: ATP DNA aptamer (quencher-CACCTGGGGGAGTATTGCGGAGGAAGG + anchor), 100 nM annealed; ATP concentration: 500 uM
In short: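 Cy3-labelled switching-strand clusters on a modified Illumina MiSeq flow-cell were annealed to 100 nM quencher-labelled ATP aptamer and imaged first in selection buffer, then after 15 min with 500 uM ATP at 22 °C. NaOH stripping and re-annealing separated each of five buffer/ATP cycles, and clusters outside 100-1000 RFU were excluded. The fluorescence ratio sums target-cycle Cy3 intensity over buffer-cycle Cy3 intensity per cluster and averages it per switch-domain sequence.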
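Note: ATP exposure 15 min at 22 °C before imaging.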

Sequence	switch fluorescence ratio
GGGGGGTGCA	1.02 ± 0.018
GGGGGGTGGC	1.05 ± 0.15
GGGGGGTGTT	1.01 ± 0.019
GGGGGGTTGA	1.1 ± 0.2
GGGGGGTTTC	1.1 ± 0.2
GGGGGGTTTG	1 ± 0.037
GGGGGGTTTT	1.01 ± 0.059
GGGGGTAAGA	0.981 ± 0.028
GGGGGTAGTG	0.9946 ± 0.0063
GGGGGTATTA	0.97014 ± 0.00019
GGGGGTATTG	0.99 ± 0.041
GGGGGTCCCG	1 ± 0.012
GGGGGTCGGT	1.01 ± 0.048
GGGGGTCTGA	1 ± 0.024
GGGGGTCTGG	0.9855 ± 0.0097
GGGGGTGAAT	1 ± 0.037
GGGGGTGATG	1 ± 0.035
GGGGGTGGCT	1.027 ± 0.0069
GGGGGTGGGT	1 ± 0.021
GGGGGTGGTC	1.01 ± 0.04
GGGGGTGTCG	0.994 ± 0.035
GGGGGTGTGG	0.999 ± 0.035
GGGGGTTCAA	0.983 ± 0.025

Sequence	switch fluorescence ratio
GGGGGTTGAC	1.01 ± 0.027
GGGGGTTGGC	0.966 ± 0.047
GGGGGTTGGT	0.996 ± 0.026
GGGGGTTGTG	1 ± 0.036
GGGGGTTGTT	0.997 ± 0.025
GGGGTAAAGA	1.02 ± 0.036
GGGGTAAGGC	0.979 ± 0.019
GGGGTAATAG	1.12 ± 0.14
GGGGTAATAT	1.06 ± 0.053
GGGGTACATG	1.022 ± 0.0055
GGGGTACGAT	1.02 ± 0.027
GGGGTACGGC	1.03 ± 0.041
GGGGTACTAG	0.9981 ± 0.0071
GGGGTAGACA	1 ± 0.031
GGGGTAGAGA	0.99 ± 0.015
GGGGTAGCAT	0.986 ± 0.028
GGGGTAGCGT	0.99 ± 0.03
GGGGTAGTCA	1 ± 0.035
GGGGTAGTCG	0.988 ± 0.012
GGGGTATCAT	0.983 ± 0.03
GGGGTATCTC	0.986 ± 0.021
GGGGTATGGG	0.985 ± 0.038
GGGGTATGTG	0.992 ± 0.039

Sequence	switch fluorescence ratio
GGGGTCCTAA	0.986 ± 0.011
GGGGTCCTTT	0.9886 ± 0.0044
GGGGTCGGG	0.977 ± 0.044
GGGGTCTGGG	0.966 ± 0.016
GGGGTGAGAG	0.993 ± 0.026
GGGGTGATAG	1 ± 0.042
GGGGTGATCA	1.05 ± 0.064
GGGGTGATCC	1.01 ± 0.012
GGGGTGCCAA	0.975 ± 0.067
GGGGTGGAGG	1.02 ± 0.017
GGGGTGGAGT	0.971 ± 0.019
GGGGTGGGAG	1.01 ± 0.041
GGGGTGGGGA	1 ± 0.036
GGGGTGGGGC	1 ± 0.042
GGGGTGGTAA	1.01 ± 0.02
GGGGTGTAAT	1.01 ± 0.021
GGGGTGTAGC	0.992 ± 0.042
GGGGTGTAGG	0.993 ± 0.024
GGGGTGTGAC	1.022 ± 0.0026
GGGGTGTGCT	1.1 ± 0.16
GGGGTTAAAT	1 ± 0.047
GGGGTTACGG	0.996 ± 0.062
GGGGTTAGGG	1 ± 0.032

Sequence	switch fluorescence ratio
GGGGTTATGG	0.984 ± 0.041
GGGGTTCCGC	1.05 ± 0.026
GGGGTTCGCG	1.004 ± 0.0048
GGGGTTCGGC	1.058 ± 0.0023
GGGGTTGAAG	0.979 ± 0.01
GGGGTTGACA	1.04 ± 0.051
GGGGTTGAGG	0.993 ± 0.023
GGGGTTGCGA	0.996 ± 0.018
GGGGTTGGGG	0.994 ± 0.031
GGGGTTGTGG	0.988 ± 0.032
GGGGTTTAAT	1 ± 0.034
GGGGTTTCCG	0.9992 ± 0.0093
GGGGTTTGGT	0.984 ± 0.038
GGGGTTTTAT	1.01 ± 0.018
GGGGTTTTGA	0.97725 ± 0.00091
GGGGTTTTGG	0.995 ± 0.025
GGGTAAAAAG	0.991 ± 0.018
GGGTAACGAG	1.006 ± 0.0078
GGGTAAGAGA	1.04 ± 0.079
GGGTAAGGCA	0.986 ± 0.071
GGGTAATGTA	1.02 ± 0.014
GGGTAATTTT	1.02 ± 0.047
GGGTACAGGT	1.18 ± 0.2

Sequence	switch fluorescence ratio
GGGTACGCTT	1 ± 0.025
GGGTAGAATG	1.02 ± 0.03
GGGTAGCCTG	0.982 ± 0.02
GGGTAGCTCG	0.987 ± 0.031
GGGTAGGAAA	1.011 ± 0.007
GGGTAGGGCC	1.026 ± 0.0023
GGGTAGGGGG	0.989 ± 0.02
GGGTAGGGTC	1.01 ± 0.022
GGGTAGTGAG	0.999 ± 0.02
GGGTATACGG	0.982 ± 0.086
GGGTATAGGC	0.981 ± 0.046
GGGTATAGGT	0.999 ± 0.016
GGGTATCACG	1 ± 0.017
GGGTATCAGG	0.965 ± 0.016
GGGTATCTAT	1.012 ± 0.0067
GGGTATGGCT	1.02 ± 0.018
GGGTATGTAT	0.992 ± 0.027
GGGTATGTGG	0.972 ± 0.032
GGGTATGTGT	0.986 ± 0.015
GGGTATTGAT	1.01 ± 0.042
GGGTCAAATA	0.982 ± 0.011
GGGTCAACGC	0.9974 ± 0.0036
GGGTCAAGCG	0.943 ± 0.017

Sequence	switch fluorescence ratio
GGGTCAGGTA	0.996 ± 0.03
GGGTCCACAG	1.01 ± 0.04
GGGTCCATGG	0.985 ± 0.024
GGGTCCATTT	1.01 ± 0.037
GGGTCCCTTG	1 ± 0.026
GGGTCCGCGG	1.04 ± 0.011
GGGTCCGGCC	0.992 ± 0.02
GGGTCCTAAG	0.975 ± 0.038
GGGTCCTGCG	1.04 ± 0.019
GGGTCCTTGT	1.01 ± 0.041
GGGTCGATTT	0.999 ± 0.01
GGGTCGCGCA	1.02 ± 0.029
GGGTCGGACG	1.028 ± 0.0088
GGGTCGGCGA	1.03 ± 0.011
GGGTCGGGAG	0.979 ± 0.027
GGGTCTAAG	0.987 ± 0.041
GGGTCTGCAC	0.997 ± 0.013
GGGTCTGGTA	1.02 ± 0.038
GGGTCTTCGC	0.991 ± 0.024
GGGTCTTGGC	1.0357 ± 0.00074
GGGTCTTTTC	1.11 ± 0.11
GGGTCTTTTT	1.02 ± 0.055
GGGTGAACAT	0.98659 ± 0.00029

Sequence	switch fluorescence ratio
GGGTGACAAT	1 ± 0.04
GGGTGAGCGA	1.05 ± 0.064
GGGTGAGGAT	1 ± 0.046
GGGTGAGGGA	1.01 ± 0.035
GGGTGAGGGG	1.01 ± 0.033
GGGTGAGTTT	1.038 ± 0.0051
GGGTGATGTA	0.996 ± 0.026
GGGTGATTAA	0.994 ± 0.017
GGGTGCAATT	1.05 ± 0.028
GGGTGCAGCG	0.993 ± 0.03
GGGTGCGGAC	1.01 ± 0.042
GGGTGCGTTC	0.964 ± 0.027
GGGTGCGTTG	1.04 ± 0.024
GGGTGGAAGC	1.02 ± 0.018
GGGTGGAGGG	0.973 ± 0.012
GGGTGGATAG	0.971 ± 0.018
GGGTGGCTCG	0.997 ± 0.046
GGGTGGCTTT	0.9872 ± 0.0083
GGGTGGGCAG	1.009 ± 0.0027

— the supplement of paper PMC10126150
